IntAct's records for PubMed 16839886

B1: Guanine nucleotide-binding protein alpha-1 subunit (Saccharomyces cerevisiae), P08539 (parent)
chain: MGCTVSTQTIGDESDPFLQNKRANDVIEQSLQLEKQRDKNEIKLLLLGAGESGKSTVLKQLKLLHQGGFSHQERLQYAQVIWADAIQSMKILIIQARKLGIQLDCDDPINNKDLFACKRILLKAKALDYINASVAGGSDFLNDYVLKYSERYETRRRVQSTGRAKAAFDEDGNISNVKSDTDRDAETVTQNEDADRNNSSRINLQDICKDLNQEGDDQMFVRKTSREIQGQNRRNLIHEDIAKAIKQLWNNDKGIKQCFARSNEFQLEGSAAYYFDNIEKFASPNYVCTDEDILKGRIKTTGITETEFNIGSSKFKVLDAGGQRSERKKWIHCFEGITAVLFVLAMSEYDQMLFEDERVNRMHESIMLFDTLLNSKWFKDTPFILFLNKIDLFEEKVKSMPIRKYFPDYQGRVGDAEAGLKYFEKIFLSLNKTNKPIYVKRTCATDTQTMKFVLSAVTDLIIQQNLKKIGII
partner: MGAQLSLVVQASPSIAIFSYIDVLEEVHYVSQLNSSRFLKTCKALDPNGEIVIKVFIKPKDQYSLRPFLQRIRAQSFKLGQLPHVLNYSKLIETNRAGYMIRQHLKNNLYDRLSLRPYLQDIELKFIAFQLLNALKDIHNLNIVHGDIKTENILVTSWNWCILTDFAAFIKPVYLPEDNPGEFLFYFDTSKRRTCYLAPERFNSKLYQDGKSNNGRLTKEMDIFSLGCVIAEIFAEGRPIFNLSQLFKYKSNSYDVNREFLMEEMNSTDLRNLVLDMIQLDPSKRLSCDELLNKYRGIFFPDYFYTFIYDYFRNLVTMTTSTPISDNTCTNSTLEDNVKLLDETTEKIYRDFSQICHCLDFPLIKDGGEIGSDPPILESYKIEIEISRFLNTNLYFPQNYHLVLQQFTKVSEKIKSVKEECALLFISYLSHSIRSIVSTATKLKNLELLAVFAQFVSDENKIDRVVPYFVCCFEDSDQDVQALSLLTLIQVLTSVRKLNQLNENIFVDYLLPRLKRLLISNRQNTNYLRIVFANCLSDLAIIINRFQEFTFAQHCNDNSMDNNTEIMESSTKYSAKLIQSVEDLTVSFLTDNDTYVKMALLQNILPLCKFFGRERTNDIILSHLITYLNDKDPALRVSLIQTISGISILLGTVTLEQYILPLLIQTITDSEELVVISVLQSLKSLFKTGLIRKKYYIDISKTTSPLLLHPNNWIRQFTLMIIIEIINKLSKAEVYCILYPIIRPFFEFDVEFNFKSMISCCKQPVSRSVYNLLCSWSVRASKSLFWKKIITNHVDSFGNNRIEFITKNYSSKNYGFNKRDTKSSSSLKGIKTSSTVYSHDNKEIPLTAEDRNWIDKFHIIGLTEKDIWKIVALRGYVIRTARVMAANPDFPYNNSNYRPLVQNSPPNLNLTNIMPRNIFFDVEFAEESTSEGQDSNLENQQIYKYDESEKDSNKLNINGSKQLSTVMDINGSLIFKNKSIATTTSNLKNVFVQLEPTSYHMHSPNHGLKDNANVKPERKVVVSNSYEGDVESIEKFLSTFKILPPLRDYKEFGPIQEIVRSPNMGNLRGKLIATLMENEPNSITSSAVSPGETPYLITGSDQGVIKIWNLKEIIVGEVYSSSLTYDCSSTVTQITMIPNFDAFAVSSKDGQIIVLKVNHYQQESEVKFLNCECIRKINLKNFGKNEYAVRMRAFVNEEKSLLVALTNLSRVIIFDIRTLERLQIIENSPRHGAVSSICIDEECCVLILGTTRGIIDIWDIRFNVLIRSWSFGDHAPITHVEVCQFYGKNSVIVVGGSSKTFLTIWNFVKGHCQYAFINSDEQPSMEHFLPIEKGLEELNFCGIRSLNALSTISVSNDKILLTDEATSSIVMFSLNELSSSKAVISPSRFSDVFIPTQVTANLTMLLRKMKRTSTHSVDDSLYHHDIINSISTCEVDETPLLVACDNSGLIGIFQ

Variants of: B1
Settings: with vps15_yeast VPS15, P22219
Q323L was tested, and the “effect of a mutation on the interaction” value was “decreasing interaction”.
